Reference: patent publication US20260167727A1 (FIBRO BIOMED TECHNOLOGY GUANGZHOU, published 2026)

T1: human DDR2 in lung tissue (human, UniProt Q16832 22-855)
T1 construct: whole, on cells; Endogenous protein in tissue slices; also called DDR2 in lung tissue of IPF patients
T1 sequence (looked up): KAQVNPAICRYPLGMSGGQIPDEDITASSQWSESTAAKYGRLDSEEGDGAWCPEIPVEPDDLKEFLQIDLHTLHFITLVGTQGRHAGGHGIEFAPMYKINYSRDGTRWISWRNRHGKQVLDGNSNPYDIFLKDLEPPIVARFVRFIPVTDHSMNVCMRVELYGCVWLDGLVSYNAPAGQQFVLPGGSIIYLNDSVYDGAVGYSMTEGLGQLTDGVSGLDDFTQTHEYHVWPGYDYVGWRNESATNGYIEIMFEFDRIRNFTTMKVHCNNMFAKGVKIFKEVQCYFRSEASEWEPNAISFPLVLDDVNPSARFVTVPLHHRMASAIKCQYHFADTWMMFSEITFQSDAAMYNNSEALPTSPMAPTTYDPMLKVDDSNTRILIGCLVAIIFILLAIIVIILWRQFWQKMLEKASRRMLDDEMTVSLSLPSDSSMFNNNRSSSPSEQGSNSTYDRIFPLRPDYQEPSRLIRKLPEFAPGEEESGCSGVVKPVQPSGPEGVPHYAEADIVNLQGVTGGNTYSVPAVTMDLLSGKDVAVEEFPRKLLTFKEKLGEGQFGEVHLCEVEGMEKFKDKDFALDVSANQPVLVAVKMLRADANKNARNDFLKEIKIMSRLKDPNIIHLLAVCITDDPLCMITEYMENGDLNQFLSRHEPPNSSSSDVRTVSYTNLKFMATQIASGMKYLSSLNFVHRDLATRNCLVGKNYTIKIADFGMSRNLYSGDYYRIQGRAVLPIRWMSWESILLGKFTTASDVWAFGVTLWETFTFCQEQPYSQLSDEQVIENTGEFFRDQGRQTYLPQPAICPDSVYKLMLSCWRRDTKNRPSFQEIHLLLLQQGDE

T2: mouse DDR2 in tissue (mouse, UniProt Q62371 22-854)
T2 construct: whole, on cells; Endogenous protein in tissue slices, not a purified protein; also called DDR2 in mouse lung tissue slices; DDR2 in the mouse retina
T2 sequence (looked up): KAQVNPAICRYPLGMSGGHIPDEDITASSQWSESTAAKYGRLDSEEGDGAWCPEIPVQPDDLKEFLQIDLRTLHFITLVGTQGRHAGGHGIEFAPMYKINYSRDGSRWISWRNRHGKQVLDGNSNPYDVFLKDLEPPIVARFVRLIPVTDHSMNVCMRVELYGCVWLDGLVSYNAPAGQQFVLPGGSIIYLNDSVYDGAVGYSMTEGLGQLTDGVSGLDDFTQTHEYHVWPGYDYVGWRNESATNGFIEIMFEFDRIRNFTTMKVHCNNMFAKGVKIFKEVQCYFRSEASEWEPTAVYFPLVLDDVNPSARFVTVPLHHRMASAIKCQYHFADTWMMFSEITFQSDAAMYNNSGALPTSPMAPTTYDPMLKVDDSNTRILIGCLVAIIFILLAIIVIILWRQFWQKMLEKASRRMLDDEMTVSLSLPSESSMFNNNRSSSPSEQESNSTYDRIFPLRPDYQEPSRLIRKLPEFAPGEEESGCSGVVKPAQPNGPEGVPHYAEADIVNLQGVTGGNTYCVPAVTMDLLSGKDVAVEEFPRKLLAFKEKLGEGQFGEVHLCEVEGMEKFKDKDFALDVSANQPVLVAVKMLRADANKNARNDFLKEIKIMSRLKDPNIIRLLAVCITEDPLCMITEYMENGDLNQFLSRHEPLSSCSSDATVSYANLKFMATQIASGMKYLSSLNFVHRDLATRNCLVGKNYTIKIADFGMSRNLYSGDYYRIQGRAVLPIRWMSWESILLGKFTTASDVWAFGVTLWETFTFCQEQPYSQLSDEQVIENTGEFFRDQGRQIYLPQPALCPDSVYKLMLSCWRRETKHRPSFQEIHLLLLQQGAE

T3: human DDR2 extracellular segment (human, UniProt Q16832 22-399)
T3 construct: range 22-399; In BLI it carried a His tag (printed 'Hig tag') and was captured on Ni-NTA; also called extracellular segment of DDR2 antigen; extracellular segment protein of DDR2 antigen
T3 sequence (looked up): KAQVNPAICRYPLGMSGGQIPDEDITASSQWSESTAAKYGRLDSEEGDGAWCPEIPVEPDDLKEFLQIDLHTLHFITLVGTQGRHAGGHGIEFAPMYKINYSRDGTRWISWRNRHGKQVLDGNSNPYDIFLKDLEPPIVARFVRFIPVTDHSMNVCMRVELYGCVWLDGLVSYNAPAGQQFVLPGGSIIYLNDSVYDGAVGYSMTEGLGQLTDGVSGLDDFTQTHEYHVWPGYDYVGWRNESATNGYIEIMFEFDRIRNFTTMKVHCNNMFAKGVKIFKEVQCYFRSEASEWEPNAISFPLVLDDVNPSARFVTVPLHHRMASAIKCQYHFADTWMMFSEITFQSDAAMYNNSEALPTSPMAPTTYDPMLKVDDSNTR

T4: DDR2 antigen overexpressed on cells (UniProt Q16832)
T4 sequence (looked up): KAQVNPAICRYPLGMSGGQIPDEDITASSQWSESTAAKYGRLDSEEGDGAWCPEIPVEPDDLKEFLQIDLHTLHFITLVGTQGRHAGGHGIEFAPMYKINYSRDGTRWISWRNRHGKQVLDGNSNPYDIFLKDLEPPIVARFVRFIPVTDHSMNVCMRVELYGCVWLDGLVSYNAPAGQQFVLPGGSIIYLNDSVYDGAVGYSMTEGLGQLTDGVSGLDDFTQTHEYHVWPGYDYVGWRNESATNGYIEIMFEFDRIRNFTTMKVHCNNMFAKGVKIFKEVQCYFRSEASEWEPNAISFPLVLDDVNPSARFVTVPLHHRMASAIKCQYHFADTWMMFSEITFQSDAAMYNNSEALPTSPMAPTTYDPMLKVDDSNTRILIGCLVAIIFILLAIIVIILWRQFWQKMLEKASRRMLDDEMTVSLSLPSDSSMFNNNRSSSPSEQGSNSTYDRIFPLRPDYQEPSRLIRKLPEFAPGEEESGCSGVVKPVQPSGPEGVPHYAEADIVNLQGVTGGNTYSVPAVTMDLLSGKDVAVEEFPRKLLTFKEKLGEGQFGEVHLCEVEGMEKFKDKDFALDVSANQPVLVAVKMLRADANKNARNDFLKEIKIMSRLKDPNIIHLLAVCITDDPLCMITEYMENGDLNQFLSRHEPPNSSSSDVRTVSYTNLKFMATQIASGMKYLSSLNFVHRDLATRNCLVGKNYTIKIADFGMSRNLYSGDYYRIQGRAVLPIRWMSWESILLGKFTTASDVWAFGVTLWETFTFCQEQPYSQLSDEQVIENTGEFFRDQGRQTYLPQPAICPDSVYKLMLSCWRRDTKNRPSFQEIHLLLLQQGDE


How the values were obtained:
[1] = target: T1, human DDR2 in lung tissue; test: imaging of lung tissue slices of IPF patients and normal donors stained with ICG labeled 1A12
Method: Lung tissues from normal donors and patients with idiopathic pulmonary fibrosis (IPF) were cut to a thickness of 600 μm in vitro, with high expression of DDR2 in IPF patients' lung tissues and low or no expression of DDR2 in normal donors' lungs. The Normal group was used as control, and lung tissue slices from IPF patients were used as the experimental group. After staining with ICG labeled DDR2 nano-antibody 1A12, in vitro live imaging was performed.

mouse DDR2 in tissue = target: T2, mouse DDR2 in tissue; test: near-infrared imaging of mouse lung tissue slices stained with ICG labeled 1A12 (untreated, bleomycin, mTGF-β)
Method: Fresh lung tissue from normal mice was cut into a thickness of […]. One was used as an untreated control, one was induced with bleomycin, and the other one was induced with mTGF-β cytokines, both for 72 hours (both treatment groups were able to promote DDR2 expression). Then, each group was stained with ICG labeled DDR2 nano-antibody 1A12 (1 ug per sample) for 30 minutes, followed by washing multiple times with PBS to remove non-specific staining. Then, imaging was performed using a live imaging device.

bovine serum albumin = target: T5, bovine serum albumin (bovine, UniProt P02769 25-607); test: ELISA at one antibody amount, wells coated with antigen-DDR2 or BSA, OD450
T5 construct: also called BSA; negative control protein
Method: The Flag tag was fused into the nano-antibody gene coding sequence and five DDR2 antibodies with Flag tag were expressed and purified: TAT, 1A5, 1A12, 1B2, 1B3; Then, the extracellular segment of DDR2 antigen was used to coat at 100 ng/well→goat serum was used to block overnight→PBS was used to wash three times, anti-DDR2 (five purified DDR2 antibodies, all comprising Flag tag) 200 ng/well, 37° C. 1 h→Anti Flag (Sigma, F1804-200UG, 1 mg/ml) 1:2500, 37° C. 1 h→G&M (HRP) 1:5000, 37° C. 30 min (horseradish peroxidase labeled anti Flag antibody amplification signal, TMB staining)→TMB staining at 37° C. 30 min→1M HCl for termination; A blank control was prepared simultaneously.
+[0199]5 nano-antibodies that were expressed and purified and identified as correct in the previous step, along with the extracellular segment of DDR2 antigen and the negative control protein bovine serum albumin (BSA), were subjected to ELISA validation.

[2] = target: T3, human DDR2 extracellular segment; test: ELISA, plate coated with DDR2 extracellular segment, Flag-tagged nano-antibody titrated, anti-Flag then HRP secondary, TMB, OD450; parameters: unit not given here
[3] = target: T4, DDR2 antigen overexpressed on cells; test: flow cytometry on 293T DDR2 cells, anti-His-488 secondary; control on 293T DDR2 R3 0.94%; on parental 293T cells 1A1-1A12 R3 0.44% and control R3 0.46%

T5 sequence (P02769 25-607 limits assumed): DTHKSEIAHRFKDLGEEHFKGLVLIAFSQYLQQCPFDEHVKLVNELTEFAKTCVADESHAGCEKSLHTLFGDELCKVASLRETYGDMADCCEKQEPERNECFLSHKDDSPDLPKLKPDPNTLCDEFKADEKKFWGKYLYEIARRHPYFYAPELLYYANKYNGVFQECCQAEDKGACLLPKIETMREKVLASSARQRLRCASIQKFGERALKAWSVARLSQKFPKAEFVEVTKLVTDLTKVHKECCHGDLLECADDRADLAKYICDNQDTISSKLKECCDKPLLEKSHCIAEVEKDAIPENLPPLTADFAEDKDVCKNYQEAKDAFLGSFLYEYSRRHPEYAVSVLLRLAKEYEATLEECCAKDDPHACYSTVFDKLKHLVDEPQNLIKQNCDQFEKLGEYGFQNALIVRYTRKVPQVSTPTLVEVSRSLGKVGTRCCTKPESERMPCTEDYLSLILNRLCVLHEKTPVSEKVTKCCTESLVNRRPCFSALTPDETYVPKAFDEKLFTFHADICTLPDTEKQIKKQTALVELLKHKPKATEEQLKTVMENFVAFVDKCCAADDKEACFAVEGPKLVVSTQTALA

binding result (bovine serum albumin) | Binder | further results
– | ICG labeled DDR2 nano-antibody 1A12 (VHH, indocyanine green (ICG) coupled with ICG-NHS; sites not stated, also called ICG labeled 1A12 nano-antibody; Nb-DDR2 labeled with indocyanine green) VHH: EVQLVESGGGLVQPGGSLRLSCAASGYILSPNVMGWFRQAPGKGRELVAAISWGDGRTYYPDSVEGRFTISRDNAKRMVYLQMNSLRAEDTAVYYCAASRKGYPSTRSDPYNYWGQGTQVTVSS | binding result [1]: binds; binding result (mouse DDR2 in tissue): binds
no binding | anti-DDR2 nano-antibody 1A1 (VHH, Expressed in E. coli BL21(DE3); also called 1A1-VHH) VHH: EVQLVESGGGLVQPGGSLRLSCAASGRIFSINVMGWFRQAPGKGRELVAAINTRGGSTYYPDSVEGRFTISRDNAKRMVYLQMNSLRAEDTAVYYCAASRKGYPSTRSDPYDYWGQGTQVTVSS | –
no binding | anti-DDR2 nano-antibody 1A12 (VHH, also called 1A12-VHH; DDR2 antibody 1A12) VHH: EVQLVESGGGLVQPGGSLRLSCAASGYILSPNVMGWFRQAPGKGRELVAAISWGDGRTYYPDSVEGRFTISRDNAKRMVYLQMNSLRAEDTAVYYCAASRKGYPSTRSDPYNYWGQGTQVTVSS | EC50 (read off the curve) [2]: ~1
– | heterodimeric anti-DDR2 nano-antibody 1A1-1A12 (bispecific antibody, part only; not given: His tag, not shown: small tags and cut ends) chain, part: EVQLVESGGGLVQPGGSLRLSCAASGYILSPNVMGWFRQAPGKGRELVAAISWGDGRTYYPDSVEGRFTISRDNAKRMVYLQMNSLRAEDTAVYYCAASRKGYPSTRSDPYNYWGQGTQVTVSSGGGSGGGSGGGSEVQLVESGGGLVQPGGSLRLSCAASGRIFSINVMGWFRQAPGKGRELVAAINTRGGSTYYPDSVEGRFTISRDNAKRMVYLQMNSLRAEDTAVYYCAASRKGYPSTRSDPYDYWGQGTQVTVSS | R3, percent of cells in the FITC-H positive gate [3]: 33%
no binding | anti-DDR2 nano-antibody 1A5 (VHH, also called 1A5-VHH) VHH: EVQLVESGGGLVQPGGSLRLSCAASGITLSLYIMGWFRQAPGKGRELVAAISRTGGSTYYPDSVEGRFTISRDNAKRMVYLQMNSLRAEDTAVYYCAADFYGNATLGYNYWGQGTQVTVSS | –
no binding | anti-DDR2 nano-antibody 1B3 (VHH, also called 1B3-VHH) VHH: EVQLVESGGGLVQPGGSLRLSCAASGDTFSYYVMGWFRQAPGKGRELVAAISRTGGSTYYPDSVEGRFTISRDNAKRMVYLQMNSLRAEDTAVYYCAADPYISGTLGYNYWGQGTQVTVSS | –
no binding | anti-DDR2 nano-antibody 1B2 (VHH, also called 1B2-VHH) VHH: EVQLVESGGGLVQPGGSLRLSCAASGYIFSIYAMGWFRQAPGKGRELVARISWGDGSTWYPDSVEGRFTISRDNAKRMVYLQMNSLRAEDTAVYYCAAAIKGRGVVTQLGYNYWGQGTQVTVSS | –
